Test results reported in patent publication US20240270817A1 (PETMEDIX, published 2024).
Where two headings read alike, the source gives them in different places.

Key:
[1] = molecular target: NGF (species not stated) (Homo sapiens (Human)) (UniProt P01138); experiment: cell-based or functional assay
[2] = molecular target: NGF (species not stated) (Homo sapiens (Human)) (UniProt P01138); experiment: SPR, Biacore 8K; captured on Protein A chip, NGF in solution (the table does not say human or rat)
[3] = molecular target: NGF (species not stated) (Homo sapiens (Human)) (UniProt P01138); experiment: cell-based or functional assay; remark: listed apart in the source
[4] = molecular target: T1, human Nerve Growth Factor (human, UniProt P01138 122-241); experiment: cell-based or functional assay
[5] = molecular target: T1, human Nerve Growth Factor; experiment: SPR, Biacore 8K; captured on Protein A chip, hNGF in solution, multi-cycle kinetics

T1 sequence (P01138 122-241 limits assumed): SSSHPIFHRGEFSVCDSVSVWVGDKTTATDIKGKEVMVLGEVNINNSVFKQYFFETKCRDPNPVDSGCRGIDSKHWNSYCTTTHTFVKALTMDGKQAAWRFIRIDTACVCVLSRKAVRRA

Which results are given for “PetML308 (Human p75NTR ECD full stalk IgG1) (Fc fusion)”?
Bottom (%), best-fit values, PathHunter TrkA activation assay [1]: 44.5%; IC50 (nM), PathHunter TrkA activation assay [1]: 282 nM; Top (%), best-fit values, PathHunter TrkA activation assay [1]: 105%; Kd [2]: 8.78 nM

For “PetML319 (Human p75NTR ECD no stalk IgG1) (Fc fusion)”, which Bottom (%), best-fit values, PathHunter TrkA activation assay [1] is on record?
The Bottom (%), best-fit values, PathHunter TrkA activation assay was 9.5%.

And the IC50 (nM), PathHunter TrkA activation assay [1]?
Its IC50 (nM), PathHunter TrkA activation assay is 8.04 nM.

And the Kd [2]?
Its Kd is 0.358 nM.

B1: Bedinvetmab (antibody, V domains shown)
VH: EVQLVESGGDLVKPGGSLRLSCVASGFTFSSHGMHWVRQSPGKGLQWVAVINSGGSSTYYTDAVKGRFTISRDNAKNTVYLQMNSLRAEDTAMYYCAKESVGGWEQLVGPHFDYWGQGTLVIVSS
VL: QSVLTQPTSVSGSLGQRVTISCSGSTNNIGILGASWYQLFPGKAPKLLVYGNGNRPSGVPDRFSGADSGDSVTLTITGLQAEDEADYYCQSFDTTLGAHVFGGGTHLTVL
What does the source list for B1?
Bottom (%), best-fit, PathHunter TrkA activation assay [3]: 5.35%; IC50 (nM), PathHunter TrkA activation assay [3]: 4.24 nM; Top (%), best-fit, PathHunter TrkA activation assay [3]: 123%; maximal TrkA inhibition, PathHunter TrkA activation assay [3]: 100%; Bottom (%), best-fit values, PathHunter TrkA activation assay [1]: 2.11%; IC50 (nM), PathHunter TrkA activation assay [1]: 1.14 nM; Top (%), best-fit values, PathHunter TrkA activation assay [1]: 93.5%; IC50 (nM), TF-1 cell proliferation inhibition [4]: 0.89 nM; ICMAX (%), TF-1 cell proliferation inhibition [4]: 96.8%; Kd [5]: 0.0073 nM; Kd [2]: 0.0073 nM
